Earlier results, collected in publication PMC9871243.

Tests used:
[1] = system: Influenza A virus virion (cited work), hemagglutinin (Influenza A virus); conditions: modifications in the cited assays not stated, PBS, pH and binding temperature not stated
[2] = system: Influenza A virus hemagglutinin (cited work) (Influenza A virus); conditions: modifications in the cited assays not stated, PBS, pH and binding temperature not stated

## TTGGGTTATTTTGGGAGGGCGGGGGTT [RHA0385 (as in cited works)]
[1]
  Kd: 0.0011 nM
[2]
  Kd: 0.6 nM
